Consider 94 variants from the supplement of paper PMC10567573.

The chains are these.
B1: ZNF8 (parent)
chain: RTHTGEKPYTCSVCGKSFSRTTCL
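Also: lentivirally expressed fusions sorted by FACS into six bins by GFP to DsRed ratio, PSI derived from sequencing read proportions per bin multiplied by bin number.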

The variants in the data set derive from B1. The data set can be described thus: protein stability index of a GFP-peptide fusion (GPS, HEK-293T) (PSI 1-6); higher = more stable. The note with it: c terminus: a fixed tail appended.
For RTHTGEKPYTCSVCGKGFSRTTCL [S17G], the protein stability index stood at 1.73.

RTHTGEKPYTCSVCGKCFSRTTCL [S17C]: the protein stability index is 3.72.

Consider RTHTGEKPYTCSVCGKIFSRTTCL [S17I], for which the protein stability index came out at 2.17. Under RTHTGEKPYTCSVCGKPFSRTTCL [S17P] stands 3.07; under RTHTGEKPYTCSVCGKEFSRTTCL [S17E], 2.4; under RKHTGEKPYTCSVCGKSFSRTTCL [T2K], 2.76.

With RPHTGEKPYTCSVCGKSFSRTTCL [T2P], the protein stability index amounted to 2.2. As to RCHTGEKPYTCSVCGKSFSRTTCL [T2C], the protein stability index was 3.48. Under REHTGEKPYTCSVCGKSFSRTTCL [T2E] stands 2.85; under RFHTGEKPYTCSVCGKSFSRTTCL [T2F], 2.69; under RQHTGEKPYTCSVCGKSFSRTTCL [T2Q], 2.66. Turning to RGHTGEKPYTCSVCGKSFSRTTCL [T2G], the protein stability index turned out to be 2.52. RLHTGEKPYTCSVCGKSFSRTTCL [T2L]: the protein stability index was 2.1. Under RTHTGEKPYTCSVCGKSNSRTTCL [F18N] stands 2.53; under RTHTGEKPYTCSVCGKSVSRTTCL [F18V], 2.5; under RTHTGEKPYTCSVCGKSQSRTTCL [F18Q], 2.39.

In the case of RTHTGEKPYTCSVCGKSTSRTTCL [F18T], the protein stability index came out at 2.48. The figure for RTHTGEKPYTCSVCGKSYSRTTCL [F18Y] is 2.23; for RTHTGEKPYTCSVCGKSLSRTTCL [F18L] it is 3.4.

For RTHTGEKPYTCSVCGKSGSRTTCL [F18G], the protein stability index stood at 2.84. RTHTGEKPYTCSVCGKSWSRTTCL [F18W]: the protein stability index came to 2.43. On to RTHTGEKPYTCSVCGKSKSRTTCL [F18K], for which the protein stability index was 2.5.

Turning to RTHTGEKPYTCSVCGKSCSRTTCL [F18C], the protein stability index was 3.45. Turning to RTHTGEKPYTCSLCGKSFSRTTCL [V13L], the protein stability index came out at 2.23. Under RTHTGEKPYTCSHCGKSFSRTTCL [V13H] stands 2.61; under RTHTGEKPYTCSDCGKSFSRTTCL [V13D], 2.46; under RTHTGEKPYTCSICGKSFSRTTCL [V13I], 2.09. Take RTHTGEKPYTCSMCGKSFSRTTCL [V13M]: the protein stability index is 2.14. The figure for HTHTGEKPYTCSVCGKSFSRTTCL [R1H] is 2.85.

Turning to LTHTGEKPYTCSVCGKSFSRTTCL [R1L], the protein stability index was 1.94. Turning to TTHTGEKPYTCSVCGKSFSRTTCL [R1T], the protein stability index worked out at 3.04. Consider ETHTGEKPYTCSVCGKSFSRTTCL [R1E], for which the protein stability index came out at 3.13. The figure for YTHTGEKPYTCSVCGKSFSRTTCL [R1Y] is 2.51. On to ITHTGEKPYTCSVCGKSFSRTTCL [R1I], for which the protein stability index stood at 2.59.

Regarding GTHTGEKPYTCSVCGKSFSRTTCL [R1G], the protein stability index came out at 3.

Take FTHTGEKPYTCSVCGKSFSRTTCL [R1F]: the protein stability index worked out at 2.22.

On to RTVTGEKPYTCSVCGKSFSRTTCL [H3V], for which the protein stability index is 2.82. Turning to RTLTGEKPYTCSVCGKSFSRTTCL [H3L], the protein stability index is 1.88. RTETGEKPYTCSVCGKSFSRTTCL [H3E]: the protein stability index worked out at 2.72.

On to RTCTGEKPYTCSVCGKSFSRTTCL [H3C], for which the protein stability index was 2.77. On to RTTTGEKPYTCSVCGKSFSRTTCL [H3T], for which the protein stability index came to 2.44. Consider RTITGEKPYTCSVCGKSFSRTTCL [H3I], for which the protein stability index worked out at 2.21. Take RTQTGEKPYTCSVCGKSFSRTTCL [H3Q]: the protein stability index is 2.2.

For the variant RTHTGFKPYTCSVCGKSFSRTTCL [E6F], the protein stability index stood at 2.11.

As for RTHTGYKPYTCSVCGKSFSRTTCL [E6Y], the protein stability index came out at 2.11. Under RTHTGGKPYTCSVCGKSFSRTTCL [E6G] stands 2.26; under RTHTGCKPYTCSVCGKSFSRTTCL [E6C], 2.28; under RTHTGNKPYTCSVCGKSFSRTTCL [E6N], 1.96. The figure for RTHTGIKPYTCSVCGKSFSRTTCL [E6I] is 2.75; for RTHTGPKPYTCSVCGKSFSRTTCL [E6P] it is 2.11; for RTHTGLKPYTCSVCGKSFSRTTCL [E6L] it is 2.1. For RTHTGHKPYTCSVCGKSFSRTTCL [E6H], the protein stability index worked out at 2.48.

Regarding RTHTGQKPYTCSVCGKSFSRTTCL [E6Q], the protein stability index stood at 2.06.

For RTHTEEKPYTCSVCGKSFSRTTCL [G5E], the protein stability index worked out at 3.25. Regarding RTHTTEKPYTCSVCGKSFSRTTCL [G5T], the protein stability index is 2.4. For the variant RTHTNEKPYTCSVCGKSFSRTTCL [G5N], the protein stability index is 2.66. The figure for RTHTLEKPYTCSVCGKSFSRTTCL [G5L] is 2.29; for RTHTAEKPYTCSVCGKSFSRTTCL [G5A] it is 2.3. The figure for RTHTIEKPYTCSVCGKSFSRTTCL [G5I] is 3.05; for RTHTMEKPYTCSVCGKSFSRTTCL [G5M] it is 2.48. Under RTHDGEKPYTCSVCGKSFSRTTCL [T4D] stands 2.49. For RTHIGEKPYTCSVCGKSFSRTTCL [T4I], the protein stability index was 2.13. RTHPGEKPYTCSVCGKSFSRTTCL [T4P]: the protein stability index was 2.22. The figure for RTHRGEKPYTCSVCGKSFSRTTCL [T4R] is 2.66.

For the variant RTHVGEKPYTCSVCGKSFSRTTCL [T4V], the protein stability index turned out to be 1.93.

For the variant RTHMGEKPYTCSVCGKSFSRTTCL [T4M], the protein stability index was 2.16.

As to RTHAGEKPYTCSVCGKSFSRTTCL [T4A], the protein stability index is 2.1. Regarding RTHCGEKPYTCSVCGKSFSRTTCL [T4C], the protein stability index turned out to be 2.32. As for RTHHGEKPYTCSVCGKSFSRTTCL [T4H], the protein stability index was 2.99.

RTHWGEKPYTCSVCGKSFSRTTCL [T4W]: the protein stability index was 1.83. The figure for RTHQGEKPYTCSVCGKSFSRTTCL [T4Q] is 2.31; for RTHFGEKPYTCSVCGKSFSRTTCL [T4F] it is 1.69; for RTHTGEKPYTCSVCGKSFYRTTCL [S19Y] it is 2.33. Under RTHTGEKPYTCSVCGKSFCRTTCL [S19C] stands 3.7.

For the variant RTHTGEKPYTCSVCGKSFPRTTCL [S19P], the protein stability index came out at 2.26. As for RTHTGEKPYTCSVCGKSFMRTTCL [S19M], the protein stability index came out at 2.5.

In the case of RTHTGEKPYTCSVCGKSFKRTTCL [S19K], the protein stability index was 2.45.

Take RTHTGEKPYTCSVCGKSFVRTTCL [S19V]: the protein stability index is 3.91. Under RTHTGEKPYTCSVCGKSFHRTTCL [S19H] stands 2.59; under RTHTGEKPYTCSVCGKSFQRTTCL [S19Q], 2.65; under RTHTGEKPYTCSVCGKSFFRTTCL [S19F], 2.64. Take RTHTGEKPLTCSVCGKSFSRTTCL [Y9L]: the protein stability index turned out to be 2.39. The figure for RTHTGEKPNTCSVCGKSFSRTTCL [Y9N] is 2.51; for RTHTGEKPFTCSVCGKSFSRTTCL [Y9F] it is 2.32; for RTHTGEKPQTCSVCGKSFSRTTCL [Y9Q] it is 2.31. Take RTHTGEKPYTCSVRGKSFSRTTCL [C14R]: the protein stability index is 2.19. For the variant RTHTGEKPYTCSVIGKSFSRTTCL [C14I], the protein stability index turned out to be 2.34. Under RTHTGEKPYTCSVVGKSFSRTTCL [C14V] stands 3.13; under RTHTGEKPYTCSVDGKSFSRTTCL [C14D], 2.77. Under RTHTGEKPYTCSVYGKSFSRTTCL [C14Y] stands 2.06; under RTHTGEKPYTCSVAGKSFSRTTCL [C14A], 2.17; under RTHTGEKPYTCSVWGKSFSRTTCL [C14W], 1.42.

As to RTHTGEKPYTCSVFGKSFSRTTCL [C14F], the protein stability index is 2.1.

With RTHTGEKPYTCSVGGKSFSRTTCL [C14G], the protein stability index was 1.99.
